Data from publication PMC5430663, “Distant Phe345 mutation compromises the stability and activity of Mycobacterium tuberculosis isocitrate lyase by modulating its structural flexibility” (Scientific Reports, 2017).

Molecular target: the molecule itself
Experiment: SEC; Superdex 200 10/300 GL on AKTA-FPLC, 50 mM phosphate buffer pH 8.0, 100 mM NaCl, 0.5 mL/min, 25 °C; mass read against standard markers (ferritin, catalase, aldolase, ovalbumin)

Protein	stoichiometry N
Mycobacterium tuberculosis isocitrate lyase (MtbICL) (enzyme, Isocitrate lyase of Mycobacterium tuberculosis, full-length, 428 amino acids per monomer; also called native MtbICL; native protein) MSVVGTPKSAEQIQQEWDTNPRWKDVTRTYSAEDVVALQGSVVEEHTLARRGAEVLWEQLHDLEWVNALGALTGNMAVQQVRAGLKAIYLSGWQVAGDANLSGHTYPDQSLYPANSVPQVVRRINNALQRADQIAKIEGDTSVENWLAPIVADGEAGFGGALNVYELQKALIAAGVAGSHWEDQLASEKKCGHLGGKVLIPTQQHIRTLTSARLAADVADVPTVVIARTDAEAATLITSDVDERDQPFITGERTREGFYRTKNGIEPCIARAKAYAPFADLIWMETGTPDLEAARQFSEAVKAEYPDQMLAYNCSPSFNWKKHLDDATIAKFQKELAAMGFKFQFITLAGFHALNYSMFDLAYGYAQNQMSAYVELQEREFAAEERGYTATKHQREVGAGYFDRIATTVDPNSSTTALTGSTEEGQFH	4
MtbICL F345A mutant (MtbICL_(F345A)) (enzyme, A small fraction formed aggregate on SEC; also called mutant protein) MSVVGTPKSAEQIQQEWDTNPRWKDVTRTYSAEDVVALQGSVVEEHTLARRGAEVLWEQLHDLEWVNALGALTGNMAVQQVRAGLKAIYLSGWQVAGDANLSGHTYPDQSLYPANSVPQVVRRINNALQRADQIAKIEGDTSVENWLAPIVADGEAGFGGALNVYELQKALIAAGVAGSHWEDQLASEKKCGHLGGKVLIPTQQHIRTLTSARLAADVADVPTVVIARTDAEAATLITSDVDERDQPFITGERTREGFYRTKNGIEPCIARAKAYAPFADLIWMETGTPDLEAARQFSEAVKAEYPDQMLAYNCSPSFNWKKHLDDATIAKFQKELAAMGFKFQAITLAGFHALNYSMFDLAYGYAQNQMSAYVELQEREFAAEERGYTATKHQREVGAGYFDRIATTVDPNSSTTALTGSTEEGQFH	4
